{
  "source": "paper PMC9737104",
  "about": "“Effects of Molecular Crowding and Betaine on HSPB5 Interactions, with Target Proteins Differing in the Quaternary Structure and Aggregation Mechanism” (International Journal of Molecular Sciences, 2022)",
  "target": "the molecule itself",
  "assay": "AUC; sedimentation velocity at 25 °C, 48,000 rpm; GDH 0.2 mg/mL with HSPB5 0.05 mg/mL, 25 mg/mL PEG and 1 M betaine, heated 10 min at 50 °C before the run; 0.1 M Na-phosphate pH 7.6, 0.01 M NaCl",
  "data": [
    {"protein": "bovine liver glutamate dehydrogenase, heated 10 min at 50 °C (enzyme, bovine liver glutamate dehydrogenase [EC 1.4.1.2-4], homohexamer of about 360 kDa; also called GDH; source: bought: Sigma-Aldrich (suspension in ammonium sulfate), desalted on a PD-10 column) not shown", "values": [
      {"measurement": "stoichiometry N", "result": 6}
    ]}
  ]
}
